Changes are numbered by the printed parent chain.
Experiments:
Pus7 D256A [1] = target: T1, Pus7 D256A (Saccharomyces cerevisiae, UniProt Q08647 1-676, D256A); test: EMSA
T1 sequence: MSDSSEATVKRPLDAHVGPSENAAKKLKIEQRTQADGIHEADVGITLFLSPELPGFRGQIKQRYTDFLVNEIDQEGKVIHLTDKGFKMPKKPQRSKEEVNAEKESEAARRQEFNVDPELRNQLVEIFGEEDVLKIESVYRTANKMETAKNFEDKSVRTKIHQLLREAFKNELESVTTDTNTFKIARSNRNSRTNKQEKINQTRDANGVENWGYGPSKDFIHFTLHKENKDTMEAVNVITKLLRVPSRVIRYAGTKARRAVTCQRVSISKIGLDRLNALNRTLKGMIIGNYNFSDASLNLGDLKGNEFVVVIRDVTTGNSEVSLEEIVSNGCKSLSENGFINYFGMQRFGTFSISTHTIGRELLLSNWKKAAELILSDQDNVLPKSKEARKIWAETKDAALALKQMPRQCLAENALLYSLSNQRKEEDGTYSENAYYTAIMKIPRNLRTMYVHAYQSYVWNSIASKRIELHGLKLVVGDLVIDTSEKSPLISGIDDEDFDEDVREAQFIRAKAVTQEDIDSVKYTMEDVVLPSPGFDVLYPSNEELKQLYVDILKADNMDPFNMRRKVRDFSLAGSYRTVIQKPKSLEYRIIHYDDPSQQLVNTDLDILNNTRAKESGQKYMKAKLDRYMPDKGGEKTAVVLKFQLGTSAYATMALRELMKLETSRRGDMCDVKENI

Pus7 D256A [2] = target: T1, Pus7 D256A; test: stopped-flow fluorescence
Pus1 = target: T2, Pus1 (Saccharomyces cerevisiae, UniProt Q12211 1-544); test: EMSA
T2 sequence: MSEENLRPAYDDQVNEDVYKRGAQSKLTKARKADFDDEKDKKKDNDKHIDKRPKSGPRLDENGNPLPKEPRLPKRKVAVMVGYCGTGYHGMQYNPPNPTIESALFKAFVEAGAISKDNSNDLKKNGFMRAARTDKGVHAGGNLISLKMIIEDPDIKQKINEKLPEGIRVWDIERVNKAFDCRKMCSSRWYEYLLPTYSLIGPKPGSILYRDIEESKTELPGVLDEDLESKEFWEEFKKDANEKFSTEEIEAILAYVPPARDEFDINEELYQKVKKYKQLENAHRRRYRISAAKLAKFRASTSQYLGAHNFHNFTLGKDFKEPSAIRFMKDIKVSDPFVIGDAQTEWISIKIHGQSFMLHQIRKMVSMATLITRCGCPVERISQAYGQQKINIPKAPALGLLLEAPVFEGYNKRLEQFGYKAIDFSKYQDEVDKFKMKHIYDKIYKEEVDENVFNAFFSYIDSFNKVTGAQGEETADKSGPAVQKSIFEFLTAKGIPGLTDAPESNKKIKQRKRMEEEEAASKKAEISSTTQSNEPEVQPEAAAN

Pus7 D256A/N305A = target: T3, Pus7 D256A/N305A (Saccharomyces cerevisiae, UniProt Q08647 1-676, D256A;N305A); test: EMSA
T3 sequence: T1 sequence with N305A

B1: CDC8 (cdc8-FL, 61 nt) (ssRNA)
RNA: GUCAAUCACGAUUGUAGACGUUACUAAUAAGGGCAUUCAGGAAGUUGAAGCGCUUAUUUGG
- Kd (Pus7 D256A [1]): 60 ± 15 nM
- Kd (Pus7 D256A [2]): ~85 nM
- binding result (Pus1): binds
- Kd (Pus7 D256A/N305A): 230 ± 60 nM

Source: paper PMC8794802
